The target in this assay is human APJ receptor (human) (UniProt P35414). Description: cell-based or functional assay.
Chain of human APJ receptor (human) (P35414 whole entry): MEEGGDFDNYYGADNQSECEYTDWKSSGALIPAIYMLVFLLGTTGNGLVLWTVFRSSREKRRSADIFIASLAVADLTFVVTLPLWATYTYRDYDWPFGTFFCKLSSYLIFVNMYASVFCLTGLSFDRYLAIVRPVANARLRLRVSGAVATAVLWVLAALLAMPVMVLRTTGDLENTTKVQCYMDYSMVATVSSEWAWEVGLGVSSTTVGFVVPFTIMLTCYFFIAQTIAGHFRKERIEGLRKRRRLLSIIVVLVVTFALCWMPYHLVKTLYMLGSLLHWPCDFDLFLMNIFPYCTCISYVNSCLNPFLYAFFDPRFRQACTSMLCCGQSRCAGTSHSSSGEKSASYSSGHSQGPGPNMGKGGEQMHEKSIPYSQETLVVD
As to “Example 1: pE-R-P-R-C*-S-H-K-G-P-Nle-C*-F-OH (peptide)”, the hAPJ Ca2+ Flux EC50 was found to be 0.74 nM.
The substance “Example 2: pE-R-P-R-hC*-S-H-K-G-P-(D-Nle)-C*-y-OH (peptide)” displayed a hAPJ Ca2+ Flux EC50 of 154 nM.
“Example 3: pE-R-P-R-L-S-C*-K-G-P-Nle-C*-F-OH (peptide)” returned a hAPJ Ca2+ Flux EC50 of 128 nM.
With “Example 4: pE-R-P-R-L-S-C*-K-G-P-Nle-(D-hC)*-F-OH (peptide)”, the hAPJ Ca2+ Flux EC50 was 406 nM.
Next, “Example 5: pE-R-P-R-L-S-c*-K-G-P-Nle-(D-hC)*-F-OH (peptide)”: 981 nM; “Example 6: pE-R-P-R-L-S-hC*-K-G-P-Nle-(D-hC)*-F-OH (peptide)”: 92.8 nM.
As to “Example 7: pE-R-P-R-L-S-(D-hC)*-K-G-P-Nle-(D-hC)*-F-OH (peptide)”, the hAPJ Ca2+ Flux EC50 amounted to 781 nM.
Next, “Example 8: pE-R-P-R-L-S-(D-hC)*-K-G-P-Nle-C*-F-OH (peptide)”: 613 nM.
Consider “Example 9: pE-R-P-R-L-S-(D-hC)*-K-G-P-Nle-hC*-F-OH (peptide)”, for which the hAPJ Ca2+ Flux EC50 came out at 1030 nM.
In the case of “Example 10: pE-R-P-R-L-S-(D-hC)*-K-G-P-Nle-C*-OH (peptide)”, the hAPJ Ca2+ Flux EC50 was 976 nM.
The result for “Example 11: pE-R-P-R-L-S-C*-K-G-P-Nle-c*-F-OH (peptide)” reads 113 nM.
In turn, “Example 12: pE-R-P-R-L-S-C*-K-G-P-Nle-hC*-F-OH (peptide)” registered a hAPJ Ca2+ Flux EC50 of 81.7 nM.
In turn, “Example 13: pE-R-P-R-L-S-hC*-K-G-P-Nle-hC*-F-OH (peptide)” came in with a hAPJ Ca2+ Flux EC50 of 760 nM.
On to “Example 14: pE-R-P-R-L-S-H-K-C*-P-Nle-C*-F-OH (peptide)”, for which the hAPJ Ca2+ Flux EC50 was 0.81 nM.
In the case of “Example 15: pE-R-P-R-L-S-Aib-K-C*-P-Nle-C*-NH(Phenethyl) (peptide)”, the hAPJ Ca2+ Flux EC50 amounted to 4 nM.
“Example 16: pE-R-P-R-L-S-a-K-C*-P-Nle-C*-f-OH (peptide)” showed a hAPJ Ca2+ Flux EC50 of 33.2 nM.
The substance “Example 17: pE-R-P-R-L-a-H-K-C*-P-Nle-C*-f-OH (peptide)” yielded a hAPJ Ca2+ Flux EC50 of 1.9 nM.
“Example 18: Isonipecotoyl-R-P-R-L-a-H-K-C*-P-Nle-C*-f-OH (peptide)” registered a hAPJ Ca2+ Flux EC50 of 2.3 nM.
Substance “Example 19: pE-R-P-R-L-a-Aib-K-C*-P-Nle-C*-f-OH (peptide)” showed a hAPJ Ca2+ Flux EC50 of 72.3 nM.
The result for “Example 20: pE-R-P-R-L-S-Aib-K-C*-P-Nle-C*-f-OH (peptide)” reads 6.1 nM.
On to “Example 21: pE-R-P-R-L-s-H-K-C*-P-Nle-C*-f-OH (peptide)”, for which the hAPJ Ca2+ Flux EC50 stood at 9.7 nM.
